“Also recorded” adds a separate entry of the source. Read-outs that look alike come from different tables or passages of the source.
Tests used:
E. faecalis V583 = assay: ΔPlySs1 OD600 lysis, 1 hr, optimal buffering conditions; type: cell-based, Enterococcus faecalis
S. agalactiae type II = assay: as above; type: cell-based, Streptococcus agalactiae
E. faecium EFSK2 = assay: as above; type: cell-based, Enterococcus faecium
B. anthracis ΔSterne = type: cell-based, Bacillus anthracis
S. equi 700400 = assay: ΔPlySs1 OD600 lysis, 1 hr, optimal buffering conditions; type: cell-based, Streptococcus equi
S. sobrinus 6715 = assay: as above; type: cell-based, Streptococcus sobrinus
B. subtilis SL4 = assay: as above; type: cell-based, Bacillus subtilis
S. epidermidis HN1292 = assay: as above; type: cell-based, Staphylococcus epidermidis
S. dysgalactiae 21597 = assay: as above; type: cell-based, Streptococcus dysgalactiae
S. dysgalactiae GGS = assay: as above; type: cell-based, Streptococcus dysgalactiae
[1] = tested on: cultures from the oral cavities of two rats; assay: rat oral cavity microbiota study, drops on culture lawns; type: cell-based, rat oral bacteria; conditions: 10 μL PlySs2 drops on BHI agar lawns; the one culture confirmed as S. aureus
[2] = PlySs2 solubility / concentrated solution; type: physicochemical; conditions: ≈20 mg/ml solution
Description: The aforementioned preparation led to a highly pure lysin preparation in just two chromatographic steps (FIG. 6). With a predicted pi of 9.01, PlySs2 flowed directly through the DEAE column at pH=7.4 leaving the bulk of the contaminant proteins stuck to the DEAE column. PlySs2 eluted cleanly in the shoulder of the flow through and at 17 mM NaCl, being purified from proteins that rapidly flowed through the CM resin. This preparation yielded ≈60 mg of protein per liter of E. coli culture at ≈1.5 mg/ml with >99% purity. The yield increased to ≈150 mg per liter of E. coli culture at ≈2.0 mg/ml with >90% purity when the CM column step was forwent. If necessary, the latter product was: dialyzed (into 5 mM PB, 15 mM NaCl); lyophilized; reconstituted (at 10% of the original volume); centrifuged; and filter-sterilized (to remove any insoluble material). […] PlySs2 can be produced more efficiently, and at a higher concentration, than many published lysins (Daniel A et al (2010) Antimicrob Agents Chemother 54(4):1602-1612; Wang, Y. et al (2009) Curr Microbiol 58(6):609-615; Nelson, D et al (2006) Proc Natl Acad Sci USA 103(28):10765-10770).
PlySs2 is more tractable and stable than previously developed lysins. PlySs2 preparation is straightforward, yielding large quantities in few steps. In addition, a highly soluble lysin is essential, because it allows for ready use at high concentrations. […]

MRSA = assay: MIC studies; type: cell-based, Staphylococcus aureus
Description: (§1) The Wiegand, et al. protocol to determine minimum inhibitory concentrations was followed with adjustments detailed below. A final suspension of ≈5×10^5 cells/ml in MHB (or BHI for S. pyogenes) resulted after Sterile-filtered lysin or vehicle was added at the appropriate concentration. These tests were distributed within a 96-well microtiter plate. The MIC's were determined, in this experiment, by detection of pellet formation in the bottom of rounded polysterene plate wells. They were also corroborated colorimetrically with alamarBlue®.

S. suis 7997 = assay: PlySs2 biochemical characterization, turbidity reduction (OD600)
E. coli = assay: MIC studies; type: cell-based, Escherichia coli; conditions: E. coli negative control
Description: as §1

B1: ΔPlySs1: truncated PlySs1 lysin, SEQ ID NO:2, N-terminal 254 amino acids: only N-terminal enzymatic and central binding domains (protein, listed as Streptococcus suis)
chain: MTINLETSIRWMSDRVGKVSYSMDYRNGPNSYDCSSAVYYALMAGGAISAGWAVNTEYMHDWLIRNGYVLVAENKPFNAQRHDVCILGKRGYSSGAGGHVVIFVDNVNVIHCNYARNGISIDNYNQVHRGMYYYLYRPANQPSISNKSLDQLVKETLAGVHGNGDTRKASLGSQYEAVMAVINGKASASEKSDEELAREVLAGKHGAGEDRKRSLGPRYEPVQAKVNELLKAKEKPSETAKNEPQTVQFKEDGDL
- lysis value after 1 hr (treated/untreated OD600 ratio) (E. faecalis V583; 6.5 μg/ml): 0.98
- lysis value after 1 hr (treated/untreated OD600 ratio) (E. faecalis V583; 13 μg/ml): 0.93
- lysis value after 1 hr (treated/untreated OD600 ratio) (E. faecalis V583; 30 μg/ml): 0.84
- lysis value after 1 hr (treated/untreated OD600 ratio) (E. faecalis V583; 65 μg/ml): 0.71
- lysis value after 1 hr (treated/untreated OD600 ratio) (E. faecalis V583; 130 μg/ml): 0.52
- lysis value after 1 hr (treated/untreated OD600 ratio) (S. agalactiae type II; 6.5 μg/ml): 0.61
- lysis value after 1 hr (treated/untreated OD600 ratio) (S. agalactiae type II; 13 μg/ml): 0.21
- lysis value after 1 hr (treated/untreated OD600 ratio) (S. agalactiae type II; 30 μg/ml): 0.11
- lysis value after 1 hr (treated/untreated OD600 ratio) (S. agalactiae type II; 65 μg/ml): 0.08
- lysis value after 1 hr (treated/untreated OD600 ratio) (S. agalactiae type II; 130 μg/ml): 0.04
- lysis value after 1 hr (treated/untreated OD600 ratio) (E. faecium EFSK2; 6.5 μg/ml): 0.85
- lysis value after 1 hr (treated/untreated OD600 ratio) (E. faecium EFSK2; 13 μg/ml): 0.67
- lysis value after 1 hr (treated/untreated OD600 ratio) (E. faecium EFSK2; 30 μg/ml): 0.52
- lysis value after 1 hr (treated/untreated OD600 ratio) (E. faecium EFSK2; 65 μg/ml): 0.32
- lysis value after 1 hr (treated/untreated OD600 ratio) (E. faecium EFSK2; 130 μg/ml): 0.13
- lysis value after 1 hr (treated/untreated OD600 ratio) (B. anthracis ΔSterne; 6.5 μg/ml): 1.02
- lysis value after 1 hr (treated/untreated OD600 ratio) (B. anthracis ΔSterne; 30 μg/ml): 1.02
- lysis value after 1 hr (treated/untreated OD600 ratio) (B. anthracis ΔSterne; 65 μg/ml): 0.98
- lysis value after 1 hr (treated/untreated OD600 ratio) (B. anthracis ΔSterne; 130 μg/ml): 0.90
- lysis value after 1 hr (treated/untreated OD600 ratio) (S. equi 700400; 6.5 μg/ml): 0.48
- lysis value after 1 hr (treated/untreated OD600 ratio) (S. equi 700400; 13 μg/ml): 0.25
- lysis value after 1 hr (treated/untreated OD600 ratio) (S. equi 700400; 30 μg/ml): 0.15
- lysis value after 1 hr (treated/untreated OD600 ratio) (S. equi 700400; 65 μg/ml): 0.07
- lysis value after 1 hr (treated/untreated OD600 ratio) (S. equi 700400; 130 μg/ml): 0.09
- lysis value after 1 hr (treated/untreated OD600 ratio) (S. sobrinus 6715; 6.5 μg/ml): 0.64
- lysis value after 1 hr (treated/untreated OD600 ratio) (S. sobrinus 6715; 13 μg/ml): 0.48
- lysis value after 1 hr (treated/untreated OD600 ratio) (S. sobrinus 6715; 30 μg/ml): 0.39
- lysis value after 1 hr (treated/untreated OD600 ratio) (S. sobrinus 6715; 65 μg/ml): 0.32
- lysis value after 1 hr (treated/untreated OD600 ratio) (S. sobrinus 6715; 130 μg/ml): 0.23
- lysis value after 1 hr (treated/untreated OD600 ratio) (B. subtilis SL4; 6.5 μg/ml): 1.07
- lysis value after 1 hr (treated/untreated OD600 ratio) (B. subtilis SL4; 13 μg/ml): 1.05
- lysis value after 1 hr (treated/untreated OD600 ratio) (B. subtilis SL4; 30 μg/ml): 1.04
- lysis value after 1 hr (treated/untreated OD600 ratio) (B. subtilis SL4; 65 μg/ml): 1.03
- lysis value after 1 hr (treated/untreated OD600 ratio) (B. subtilis SL4; 130 μg/ml): 0.96
- lysis value after 1 hr (treated/untreated OD600 ratio) (S. epidermidis HN1292; 6.5 μg/ml): 1.04
- lysis value after 1 hr (treated/untreated OD600 ratio) (S. epidermidis HN1292; 13 μg/ml): 1.00
- lysis value after 1 hr (treated/untreated OD600 ratio) (S. epidermidis HN1292; 30 μg/ml): 0.96
- lysis value after 1 hr (treated/untreated OD600 ratio) (S. epidermidis HN1292; 65 μg/ml): 0.94
- lysis value after 1 hr (treated/untreated OD600 ratio) (S. epidermidis HN1292; 130 μg/ml): 0.87
- lysis value after 1 hr (treated/untreated OD600 ratio) (S. dysgalactiae 21597; 6.5 μg/ml): 0.26
- lysis value after 1 hr (treated/untreated OD600 ratio) (S. dysgalactiae 21597; 13 μg/ml): 0.18
- lysis value after 1 hr (treated/untreated OD600 ratio) (S. dysgalactiae 21597; 30 μg/ml): 0.12
- lysis value after 1 hr (treated/untreated OD600 ratio) (S. dysgalactiae 21597; 65 μg/ml): 0.10
- lysis value after 1 hr (treated/untreated OD600 ratio) (S. dysgalactiae 21597; 130 μg/ml): 0.09
- lysis value after 1 hr (treated/untreated OD600 ratio) (S. dysgalactiae GGS; 6.5 μg/ml): 0.30
- lysis value after 1 hr (treated/untreated OD600 ratio) (S. dysgalactiae GGS; 13 μg/ml): 0.27
- lysis value after 1 hr (treated/untreated OD600 ratio) (S. dysgalactiae GGS; 30 μg/ml): 0.15
- lysis value after 1 hr (treated/untreated OD600 ratio) (S. dysgalactiae GGS; 65 μg/ml): 0.11
- lysis value after 1 hr (treated/untreated OD600 ratio) (S. dysgalactiae GGS; 130 μg/ml): 0.14

B2: PlySs2: Streptococcus suis prophage lysin, SEQ ID NO:3; N-terminal CHAP domain and C-terminal SH3-type 5 domain (protein, listed as Streptococcus suis)
chain: MTTVNEALNNVRAQVGSGVSVGNGECYALASWYERMISPDATVGLGAGVGWVSGAIGDTISAKNIGSSYNWQANGWTVSTSGPFKAGQIVTLGATPGNPYGHVVIVEAVDGDRLTILEQNYGGKRYPVRNYYSAASYRQQVVHYITPPGTVAQSAPNLAGSRSYRETGTMTVTVDALNVRRAPNTSGEIVAVYKRGESFDYDTVIIDVNGYVWVSYIGGSGKRNYVATGATKDGKRFGNAWGTFK
- clearing zone around drops on lawns of 6 rat oral cultures [1]: only appeared on one culture
- activity after lyophilization and reconstitution to concentrated solution [2]: retained the concentration-adjusted activity
- minimum inhibitory concentration (MIC) (MRSA): 16 µg/mL
- consecutive room temperature to −80° C. freeze-thaws without effect on activity (S. suis 7997): 10
- effect of NaCl on bacteriolysis (S. suis 7997; 0-1000 mM NaCl, constant enzyme concentration): bacteriolysis decreased from 0-1000 mM NaCl
- effect of EDTA on lysis (S. suis 7997; 15 mM Na3PO4, pH 8.0, various EDTA concentrations): impeded PlySs2-induced lysis
- activity after 15 days of 4° C. incubation (S. suis 7997; 4° C., 15 days): no observable decrease in activity; also recorded: stable
- activity after incubation at 37° C. for 24 hours (S. suis 7997; 37° C., 24 hours): retained full activity; also recorded: stable
- stability up to 24 hours at 37° C. in buffer (S. suis 7997; 37° C., 24 hours, killing of strain 7997): > 90%
- activity after 48-hour 37° C. incubation (S. suis 7997; 37° C., 48 hours): diminished activity
- activity maintained after 48 hours at 37° C. (S. suis 7997; 37° C., 48 hours): at least 50%
- temperature at which activity completely abolished (S. suis 7997; 30 min incubation): 60 °C
- pH of maximal lysis in BTP (S. suis 7997; BTP buffer pH 7.0-9.7): 9.7
- acute activity up to pH (S. suis 7997; Bis-tris propane (BTP) buffer): ≤ 9.7
- activity down to pH (S. suis 7997; PlySs2 32 μg/ml): ≥ 6.0
- effect of excess DTT on activity (S. suis 7997; data not shown): no impact
- pH of strongest activity (S. suis 7997; phosphate/citrate buffer pH 4.6-8.0, PlySs2 32 μg/ml): 8.0
- activity retained on storage in buffer at −80° C. (S. suis 7997; up to at least 7 months at −80° C.): ~100%
- NaCl concentration of greatest activity (S. suis 7997; various NaCl concentrations): 0 mM
- minimum inhibitory concentration (MIC) (E. coli): too high to calculate; also recorded: immeasurable

Source: patent US11111484B2, “Streptococcus bacteriophage lysins for detection and treatment of gram positive bacteria” (priority 2011, dated 2021)
